Experimental data: paper PMC7662524, “Determination and Dissection of DNA-Binding Specificity for the Thermus thermophilus HB8 Transcriptional Regulator TTHB099”

T1: TTHB099 (Thermus thermophilus HB8, UniProt Q53W63 1-195)
T1 sequence: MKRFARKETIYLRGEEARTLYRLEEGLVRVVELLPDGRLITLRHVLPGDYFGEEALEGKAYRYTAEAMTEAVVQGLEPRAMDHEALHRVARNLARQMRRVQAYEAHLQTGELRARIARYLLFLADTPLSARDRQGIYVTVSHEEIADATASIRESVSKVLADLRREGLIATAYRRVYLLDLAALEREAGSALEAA


Target: T1, TTHB099
Experiment: BLI; Buffer, salt, pH and temperature not given (as previously described); BLI 17, 50, 150, 450 nM TTHB099 on streptavidin sensors; EMSA 0-42.2 nM TTHB099
Settings: protein: recombinant; label: 5' biotin

Binder	Kd [nM]
ST2_099 m7 (dsDNA) DNA 1: AGGAATTCGTGCAGAGGTGAATTGTATTTTAGAATACATTACCATCCCTCCAGAAGCTTG DNA 2: CAAGCTTCTGGAGGGATGGTAATGTATTCTAAAATACAATTCACCTCTGCACGAATTCCT	5.82
TTHA1626/27 site (dsDNA) DNA 1: AGGAATTCGTGCAGAGGTGAATGGTATGGGAAGCTACATTACCATCCCTCCAGAAGCTTG DNA 2: CAAGCTTCTGGAGGGATGGTAATGTAGCTTCCCATACCATTCACCTCTGCACGAATTCCT	102
ST2_099 m5 (dsDNA) DNA 1: AGGAATTCGTGCAGAGGTGAATTGTACTCTAGAATACATTACCATCCCTCCAGAAGCTTG DNA 2: CAAGCTTCTGGAGGGATGGTAATGTATTCTAGAGTACAATTCACCTCTGCACGAATTCCT	4.86
TTHA1911/12 site (dsDNA) DNA 1: AGGAATTCGTGCAGAGGTGAATTGTACTTGAGCATACCTTACCATCCCTCCAGAAGCTTG DNA 2: CAAGCTTCTGGAGGGATGGTAAGGTATGCTCAAGTACAATTCACCTCTGCACGAATTCCT	65.6
ST2_099 m2 (dsDNA) DNA 1: AGGAATTCGTGCAGAGGTGAATTTTATTCTAGAATACATTACCATCCCTCCAGAAGCTTG DNA 2: CAAGCTTCTGGAGGGATGGTAATGTATTCTAGAATAAAATTCACCTCTGCACGAATTCCT	33.6
TTHA0201/02 site (dsDNA) DNA 1: AGGAATTCGTGCAGAGGTGAATTTTGTTATACGCCACATTACCATCCCTCCAGAAGCTTG DNA 2: CAAGCTTCTGGAGGGATGGTAATGTGGCGTATAACAAAATTCACCTCTGCACGAATTCCT	780
ST2_099 m4 (dsDNA) DNA 1: AGGAATTCGTGCAGAGGTGAATTGTCTTCTAGAATACATTACCATCCCTCCAGAAGCTTG DNA 2: CAAGCTTCTGGAGGGATGGTAATGTATTCTAGAAGACAATTCACCTCTGCACGAATTCCT	9.56
ST2_099 m3 (dsDNA) DNA 1: AGGAATTCGTGCAGAGGTGAATTGAATTCTAGAATACATTACCATCCCTCCAGAAGCTTG DNA 2: CAAGCTTCTGGAGGGATGGTAATGTATTCTAGAATTCAATTCACCTCTGCACGAATTCCT	13.8
ST2_099 m1 (dsDNA) DNA 1: AGGAATTCGTGCAGAGGTGAATGGTATTCTAGAATACATTACCATCCCTCCAGAAGCTTG DNA 2: CAAGCTTCTGGAGGGATGGTAATGTATTCTAGAATACCATTCACCTCTGCACGAATTCCT	6.29
ST2_099 m6 (dsDNA) DNA 1: AGGAATTCGTGCAGAGGTGAATTGTATACTAGAATACATTACCATCCCTCCAGAAGCTTG DNA 2: CAAGCTTCTGGAGGGATGGTAATGTATTCTAGTATACAATTCACCTCTGCACGAATTCCT	5.61
ST2_099 m8 (dsDNA) DNA 1: AGGAATTCGTGCAGAGGTGAATTGTATTCAAGAATACATTACCATCCCTCCAGAAGCTTG DNA 2: CAAGCTTCTGGAGGGATGGTAATGTATTCTTGAATACAATTCACCTCTGCACGAATTCCT	6.81
TTHA0132/33 site (dsDNA) DNA 1: AGGAATTCGTGCAGAGGTGAATTGTAAGGGAGAATAAATTACCATCCCTCCAGAAGCTTG DNA 2: CAAGCTTCTGGAGGGATGGTAATTTATTCTCCCTTACAATTCACCTCTGCACGAATTCCT	221
TTHB088/89 site (dsDNA) DNA 1: AGGAATTCGTGCAGAGGTGAATGGTAGCCTGGACCACATTACCATCCCTCCAGAAGCTTG DNA 2: CAAGCTTCTGGAGGGATGGTAATGTGGTCCAGGCTACCATTCACCTCTGCACGAATTCCT	3.35
TTHA0506/07 site (dsDNA) DNA 1: AGGAATTCGTGCAGAGGTGAATTGTTTTTCAAGATACATTACCATCCCTCCAGAAGCTTG DNA 2: CAAGCTTCTGGAGGGATGGTAATGTATCTTGAAAAACAATTCACCTCTGCACGAATTCCT	77.6
TTHA0080/81 site (dsDNA) DNA 1: AGGAATTCGTGCAGAGGTGAATTGTGTTTTAGTTTACTTTACCATCCCTCCAGAAGCTTG DNA 2: CAAGCTTCTGGAGGGATGGTAAAGTAAACTAAAACACAATTCACCTCTGCACGAATTCCT	93.2
TTHA1833 site (dsDNA) DNA 1: AGGAATTCGTGCAGAGGTGAATTGTAGGCCAGGCCACGTTACCATCCCTCCAGAAGCTTG DNA 2: CAAGCTTCTGGAGGGATGGTAACGTGGCCTGGCCTACAATTCACCTCTGCACGAATTCCT	3.05

Target: T1, TTHB099
Experiment: BLI; up to 450 nM TTHB099; Buffer, salt, pH and temperature not given (as previously described); BLI 17, 50, 150, 450 nM TTHB099 on streptavidin sensors; EMSA 0-42.2 nM TTHB099
Settings: protein: recombinant; label: 5' biotin

Binder	binding result
TTHA0374 site (dsDNA) DNA 1: AGGAATTCGTGCAGAGGTGAATAGTGATGTAAACTAAATTACCATCCCTCCAGAAGCTTG DNA 2: CAAGCTTCTGGAGGGATGGTAATTTAGTTTACATCACTATTCACCTCTGCACGAATTCCT	no binding
ST2_REPSAis control (dsDNA) DNA 1: CTAGGAATTCGTGCAGAGGTGAATCGTCATAGAATTCGTTACCATCCCTCCAGAAGCTTGGAC DNA 2: GTCCAAGCTTCTGGAGGGATGGTAACGAATTCTATGACGATTCACCTCTGCACGAATTCCTAG	no binding
